Patent US20210388087A1 (Chugai, published 2021)

B1: CE115HA000 N31W (antibody, human IgG1, kappa, L234A L235A, N297A, name in Kabat numbering)
heavy: QVQLVESGGGVVQPGRSLRLSCAASGFTFSWAWMHWVRQAPGKGLEWVAQIKAKSNNYATYYAESVKGRFTISRDDSKNSLYLQMNSLKTEDTAVYYCRYVHYGAYYGVDAWGQGTTVTVSSASTKGPSVFPLAPSSKSTSGGTAALGCLVKDYFPEPVTVSWNSGALTSGVHTFPAVLQSSGLYSLSSVVTVPSSSLGTQTYICNVNHKPSNTKVDKKVEPKSCDKTHTCPPCPAPEAAGGPSVFLFPPKPKDTLMISRTPEVTCVVVDVSHEDPEVKFNWYVDGVEVHNAKTKPREEQYASTYRVVSVLTVLHQDWLNGKEYKCKVSNKALPAPIEKTISKAKGQPREPQVYTLPPSRCELTKNQVSLSCAVKGFYPSDIAVEWESNGQPENNYKTTPPVLDSDGSFFLVSKLTVDKSRWQQGNVFSCSVMHEALHNHYTQKSLSLSPDYKDDDDK
chain: EPKSSDKTHTCPPCPAPELLGGPSVFLFPPKPKDTLMISRTPEVTCVVVDVSHEDPEVKFNWYVDGVEVHNAKTKPREEQYNSTYRVVSVLTVLHQDWLNGKEYKCKVSNKALPAPIEKTISKAKGQPREPQVCTLPPSRDELTKNQVSLWCLVKGFYPSDIAVEWESNGQPENNYKTTPPVLDSDGSFFLYSKLTVDKSRWQQGNVFSCSVMHEALHNRYTQKSLSLSP
light: DIVMTQSPLSLPVTPGEPASISCRSSQSLVHSNRNTYLHWYQQKPGQAPRLLIYKVSNRFSGVPDRFSGSGSGTDFTLKISRVEAEDVGVYYCGQGTQVPYTFGQGTKLEIKRTVAAPSVFIFPPSDEQLKSGTASVVCLLNNFYPREAKVQWKVDNALQSGNSQESVTEQDSKDSTYSLSSTLTLSKADYEKHKVYACEVTHQGLSSPVTKSFNRGEC
notes: one-arm antibody
B2: CE115HA000 N31Y (antibody, human IgG1, kappa, L234A L235A, N297A, name in Kabat numbering)
heavy: QVQLVESGGGVVQPGRSLRLSCAASGFTFSYAWMHWVRQAPGKGLEWVAQIKAKSNNYATYYAESVKGRFTISRDDSKNSLYLQMNSLKTEDTAVYYCRYVHYGAYYGVDAWGQGTTVTVSSASTKGPSVFPLAPSSKSTSGGTAALGCLVKDYFPEPVTVSWNSGALTSGVHTFPAVLQSSGLYSLSSVVTVPSSSLGTQTYICNVNHKPSNTKVDKKVEPKSCDKTHTCPPCPAPEAAGGPSVFLFPPKPKDTLMISRTPEVTCVVVDVSHEDPEVKFNWYVDGVEVHNAKTKPREEQYASTYRVVSVLTVLHQDWLNGKEYKCKVSNKALPAPIEKTISKAKGQPREPQVYTLPPSRCELTKNQVSLSCAVKGFYPSDIAVEWESNGQPENNYKTTPPVLDSDGSFFLVSKLTVDKSRWQQGNVFSCSVMHEALHNHYTQKSLSLSPDYKDDDDK
chain: EPKSSDKTHTCPPCPAPELLGGPSVFLFPPKPKDTLMISRTPEVTCVVVDVSHEDPEVKFNWYVDGVEVHNAKTKPREEQYNSTYRVVSVLTVLHQDWLNGKEYKCKVSNKALPAPIEKTISKAKGQPREPQVCTLPPSRDELTKNQVSLWCLVKGFYPSDIAVEWESNGQPENNYKTTPPVLDSDGSFFLYSKLTVDKSRWQQGNVFSCSVMHEALHNRYTQKSLSLSP
light: DIVMTQSPLSLPVTPGEPASISCRSSQSLVHSNRNTYLHWYQQKPGQAPRLLIYKVSNRFSGVPDRFSGSGSGTDFTLKISRVEAEDVGVYYCGQGTQVPYTFGQGTKLEIKRTVAAPSVFIFPPSDEQLKSGTASVVCLLNNFYPREAKVQWKVDNALQSGNSQESVTEQDSKDSTYSLSSTLTLSKADYEKHKVYACEVTHQGLSSPVTKSFNRGEC
notes: one-arm antibody

Target: T1, CD3 epsilon homodimer protein (UniProt P07766 23-126)
T1 construct: also called CD3 (CD3 epsilon)
Experiment: SPR, CD3 epsilon homodimer on chip, one-arm antibody as analyte;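 note: surface plasmon resonance at 25 °C with CD3 epsilon homodimer amine-coupled to a CM4 sensor chip, antibody injected as analyte, HBS-EP+ as running buffer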

T1 sequence (P07766 23-126): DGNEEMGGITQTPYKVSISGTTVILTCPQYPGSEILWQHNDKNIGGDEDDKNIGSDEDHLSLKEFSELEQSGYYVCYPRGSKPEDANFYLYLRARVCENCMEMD

KD ratio (KD of CE115HA000/KD of altered form)	Binder
1.07	B1
1.1	B2
